Laboratory results from publication PMC13399123.

Key:
[1] = molecular target: GST-SH3 (SH3 domain of cortactin fused to GST) (UniProt Q14247); assay: GST pull-down with recombinant proteins, anti-MBP immunoblot, quantified; conditions: 10% of the input MBP protein loaded; n = 2; parent: est. 1.0; read off a plot
[2] = molecular target: cortactin (CTTN), endogenous in MKN-74 cells (UniProt Q14247); assay: GFP-trap pull-down from cell lysates, anti-cortactin immunoblot, quantified; conditions: MKN-74 HS1BP3 KO cells expressing EGFP-HS1BP3 WT or PRR3.1 mutant; n = 4; parent: est. 1.0; read off a plot
cortactin (CTTN), endogenous in MKN-74 cells, sequence (Q14247 whole entry, the tested form may be a part): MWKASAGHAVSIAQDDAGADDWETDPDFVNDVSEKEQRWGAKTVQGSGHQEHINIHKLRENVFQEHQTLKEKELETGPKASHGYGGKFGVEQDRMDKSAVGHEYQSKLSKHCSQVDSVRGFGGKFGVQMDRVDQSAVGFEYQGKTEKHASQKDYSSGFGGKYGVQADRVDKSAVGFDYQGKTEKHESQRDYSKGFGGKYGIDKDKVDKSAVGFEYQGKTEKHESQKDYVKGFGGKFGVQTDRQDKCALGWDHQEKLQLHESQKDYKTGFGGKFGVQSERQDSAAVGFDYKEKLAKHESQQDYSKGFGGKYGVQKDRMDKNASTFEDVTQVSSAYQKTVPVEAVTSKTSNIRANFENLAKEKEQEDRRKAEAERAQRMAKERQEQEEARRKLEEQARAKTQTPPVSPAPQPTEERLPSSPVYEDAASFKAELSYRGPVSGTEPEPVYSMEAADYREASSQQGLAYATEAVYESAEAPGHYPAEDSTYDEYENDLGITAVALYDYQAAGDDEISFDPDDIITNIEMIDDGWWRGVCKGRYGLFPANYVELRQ

[3] = molecular target: GST-SH3 (SH3 domain of cortactin fused to GST) (UniProt Q14247); assay: GST pull-down from cell lysates, anti-HS1BP3 immunoblot, quantified; conditions: lysates of MKN-74 HS1BP3 KO cells rescued with EGFP-HS1BP3 WT or PRR3.1 mutant; n = 2; parent: est. 8.5; read off a plot; scale: % of GST-SH3 interaction

GST-SH3 (SH3 domain of cortactin fused to GST), sequence (Q14247 492-550): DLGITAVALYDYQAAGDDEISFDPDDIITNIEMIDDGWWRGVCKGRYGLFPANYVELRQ
EGFP-HS1BP3 WT, sequence (Q53T59 whole entry, change not shown): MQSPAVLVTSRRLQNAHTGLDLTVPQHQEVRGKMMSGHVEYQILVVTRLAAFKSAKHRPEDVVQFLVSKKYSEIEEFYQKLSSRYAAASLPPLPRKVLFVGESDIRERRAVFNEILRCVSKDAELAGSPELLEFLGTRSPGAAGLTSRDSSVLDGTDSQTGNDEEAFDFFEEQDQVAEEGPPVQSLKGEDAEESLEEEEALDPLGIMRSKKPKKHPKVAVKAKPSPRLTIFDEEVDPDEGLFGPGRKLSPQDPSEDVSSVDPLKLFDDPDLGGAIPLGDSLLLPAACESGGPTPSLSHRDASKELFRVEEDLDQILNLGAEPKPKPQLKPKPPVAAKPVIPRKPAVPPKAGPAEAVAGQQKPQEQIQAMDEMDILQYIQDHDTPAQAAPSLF
full-length MBP-HS1BP3 (from UniProt Q53T59) PRR3.1 mut (prolines of PRR3.1 replaced with alanine), sequence (Q53T59 whole entry, change not shown): as above
full-length MBP-HS1BP3 (from UniProt Q53T59) PRR3.1+3.2 mut (prolines of PRR3.1 and PRR3.2 replaced with alanine), sequence (Q53T59 whole entry, change not shown): as above
full-length MBP-HS1BP3 (from UniProt Q53T59) PRR3.2 mut (prolines of PRR3.2 replaced with alanine), sequence (Q53T59 whole entry, change not shown): as above

ratio to parent [1]	ratio to parent [2]	response [3]	Substance
0.31			full-length MBP-HS1BP3 (from UniProt Q53T59) PRR3.2 mut (prolines of PRR3.2 replaced with alanine)
0.51			full-length MBP-HS1BP3 (from UniProt Q53T59) PRR3.1+3.2 mut (prolines of PRR3.1 and PRR3.2 replaced with alanine)
0.07			full-length MBP-HS1BP3 (from UniProt Q53T59) PRR3.1 mut (prolines of PRR3.1 replaced with alanine)
	0.82	0.3	EGFP-HS1BP3 WT (from UniProt Q53T59) PRR3.1 mut (prolines of PRR3.1 replaced with alanine)
